The target of experiment [1] is T1, Histidine-tagged recombinant human FcγRI (CD64) (human, UniProt P12314 16-288, limits assumed).
T1 construct: bought
Put plainly: SPR, His-FcγRI captured; Expt 1.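 Further: SPR at 25 °C on anti-His antibody chip capturing FcγRI, Fc-variant antibodies injected at 100 µg/mL for 1 min, signal near end of injection minus buffer blank.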 On the technique in general: In SPR one partner is held on a chip, and binding of the other changes the refractive index at the surface.

Experiment [2] deals with T1, Histidine-tagged recombinant human …. Put plainly: SPR, His-FcγRI captured; Expt 3.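 Further: biacore T200 SPR at 25 °C, Fc-variant antibodies at 100 µg/mL flowed 1 min over anti-His-captured FcγRI, signal taken just before injection end minus a buffer blank cycle; antibody analyte injected at 100 µg/mL for 1 min.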
Experiment [3] shares this target. Put plainly: SPR, His-FcγRI captured; mean.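 Further: biacore T200 SPR at 25 °C, anti-His surface capturing FcγRI, Fc-variant antibodies injected at 100 µg/mL for 1 min, signal near injection end minus third buffer blank, three repeats.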
Experiment [4] has the same target. Put plainly: SPR, His-FcγRI captured; Expt 2.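 Further: biacore T200 SPR at 25 °C, Fc-variant antibodies at 100 µg/mL flowed 1 min over anti-His-captured receptor, signal read near injection end minus third buffer blank; antibody analyte injected at 100 µg/mL for 1 min.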
Description: Binding analysis was carried out by surface plasmon resonance at 25° C. using a Biacore® T200 instrument with Biacore® T200 control software. The sample compartment was held at 5° C. The running buffer (HBS-EP+) consisted of 0.01 M HEPES pH 7.4, containing 0.15 M NaCl, 3 mM EDTA, and 0.05% v/v Surfactant P20. Methods were run using the manufacturer's standard method wizards as described in the Biacore® T200 Instrument Handbook.
The cell was activated by treatment with EDC/NHS for 7 min. The antibody was diluted to 10 μg/mL in 10 mM sodium acetate pH 5.0 and injected for 7 min at 5 μL/min. The flow cell was deactivated by injection of 1M ethanolamine for 7 min. This process was repeated in the absence of anti-his antibody on a separate flow cell to generate a reference surface. […] Samples of purified antibodies comprising variant Fc regions (1 mg/mL in PBS) were diluted with running buffer to 100 μg/mL and were injected for 1 min at 30 μL/min and allowed to disassociate for 2 min. Between each cycle, the chip was regenerated by injection of 10 mM glycine pH 3.0 for 0.5 min at a flow rate of 30 μL/min and recharged with a fresh injection of FcγRI. At the beginning of each experiment, three blank cycles were run, with buffer alone being injected instead of test sample. The average SPR signal (relative to the reference cell) was measured in a window approximately 8 to 13 seconds before the injection of test sample (baseline) and approximately 3 to 8 seconds before the end of injection (response). The response of the third of the blank (buffer) samples was subtracted from the response of each test sample in order to allow for any dissociation of the bound FcγRI giving a corrected response for each test sample. The whole experiment was repeated three times with the test samples being analysed in different orders each time.

Changes are numbered by the printed parent chain. Names may count otherwise.

B1: anti-CD20 human IgG1 G236R/L328R (antibody)
heavy: not shown
light: QIVLSQSPAILSASPGEKVTMTCRASSSVSYIHWFQQKPGSSPKPWIYATSNLASGVPVRFSGSGSGTSYSLTISRVEAEDAATYYCQQWTSNPPTFGGGTKLEIKRTVAAPSVFIFPPSDEQLKSGTASVVCLLNNFYPREAKVQWKVDNALQSGNSQESVTEQDSKDSTYSLSSTLTLSKADYEKHKVYACEVTHQGLSSPVTKSFNRGEC
notes: also called 2-68
Regarding B1, the “Corrected response (RU)” value in experiment [1] worked out at 8.8 RU; in experiment [2], 65 RU.

B2: anti-CD20 human IgG1 L234A/G236R (antibody)
heavy: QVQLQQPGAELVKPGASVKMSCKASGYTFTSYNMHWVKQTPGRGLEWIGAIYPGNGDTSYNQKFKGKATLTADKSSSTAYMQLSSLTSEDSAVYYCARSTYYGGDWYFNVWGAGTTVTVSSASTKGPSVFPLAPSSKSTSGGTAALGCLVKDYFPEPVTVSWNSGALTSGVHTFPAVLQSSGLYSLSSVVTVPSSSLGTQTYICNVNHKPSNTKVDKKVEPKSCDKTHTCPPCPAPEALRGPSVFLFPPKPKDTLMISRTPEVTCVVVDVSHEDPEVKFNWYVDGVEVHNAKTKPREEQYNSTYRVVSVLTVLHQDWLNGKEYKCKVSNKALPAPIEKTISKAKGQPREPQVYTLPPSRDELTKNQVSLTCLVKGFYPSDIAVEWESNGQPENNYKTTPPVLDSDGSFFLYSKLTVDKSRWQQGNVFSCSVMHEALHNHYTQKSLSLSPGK
light: B1 light
notes: also called 1-9
Take B2: in experiment [3], the “Corrected response (RU), Mean” value is 70.4 RU. Moreover, the “Corrected response (RU)” value in experiment [4] came out at 49.3 RU; in experiment [2], 74.7 RU.

B3: anti-CD20 human IgG1 L234D/L235S/G236R (antibody)
heavy: QVQLQQPGAELVKPGASVKMSCKASGYTFTSYNMHWVKQTPGRGLEWIGAIYPGNGDTSYNQKFKGKATLTADKSSSTAYMQLSSLTSEDSAVYYCARSTYYGGDWYFNVWGAGTTVTVSSASTKGPSVFPLAPSSKSTSGGTAALGCLVKDYFPEPVTVSWNSGALTSGVHTFPAVLQSSGLYSLSSVVTVPSSSLGTQTYICNVNHKPSNTKVDKKVEPKSCDKTHTCPPCPAPEDSRGPSVFLFPPKPKDTLMISRTPEVTCVVVDVSHEDPEVKFNWYVDGVEVHNAKTKPREEQYNSTYRVVSVLTVLHQDWLNGKEYKCKVSNKALPAPIEKTISKAKGQPREPQVYTLPPSRDELTKNQVSLTCLVKGFYPSDIAVEWESNGQPENNYKTTPPVLDSDGSFFLYSKLTVDKSRWQQGNVFSCSVMHEALHNHYTQKSLSLSPGK
light: B1 light
notes: also called 2-10; 1-29
As to B3, in experiment [3], the “Corrected response (RU), Mean” value was 3.4 RU. The “Corrected response (RU)” value in experiment [4] stood at 2.7 RU; in experiment [2], 3.6 RU.

B4: anti-CD20 human IgG1 L234S/L235V/G236R (antibody)
heavy: B3 heavy with D238S, S239V
light: B1 light
notes: also called 2-53
As for B4, in experiment [3], the “Corrected response (RU), Mean” value was 2.4 RU. In addition, the figures for the “Corrected response (RU)” value in experiment [1] and in experiment [2] were 0.7 RU and 4.3 RU, respectively.

B5: anti-CD20 human IgG1 L234D/G236R (antibody)
heavy: not shown
light: B1 light
notes: also called 2-8; 1-24
On to B5, for which the “Corrected response (RU)” value is 135 RU in experiment [1] and 77.7 RU in experiment [4].

B6: anti-CD20 human IgG1 L234H/L235S/G236R (antibody)
heavy: B3 heavy with D238H
light: B1 light
notes: also called 2-21; 1-74
Take B6: the “Corrected response (RU)” value in experiment [1] is 0.7 RU; in experiment [2], 5.9 RU.

B7: anti-CD20 human IgG1 L234E/L235H/G236R (antibody)
heavy: B3 heavy with D238E, S239H
light: B1 light
notes: also called 2-13; 1-36
In the case of B7, the “Corrected response (RU), Mean” value in experiment [3] came to 5.1 RU. In addition, the “Corrected response (RU)” value amounted to 4.6 RU in experiment [1], 4.5 RU in experiment [4] and 6.2 RU in experiment [2].

B8: anti-CD20 human IgG1 L234D/L235T/G236R (antibody)
heavy: B3 heavy with S239T
light: B1 light
notes: also called 2-11; 1-30
As to B8, the “Corrected response (RU), Mean” value in experiment [3] amounted to 4.3 RU. For the same molecule, the results for the “Corrected response (RU)” value in experiment [1], in experiment [4] and in experiment [2] were 3 RU, 4.3 RU and 5.5 RU, respectively.

B9: anti-CD20 human IgG1 L234D/L235H/G236R (antibody)
heavy: B3 heavy with S239H
light: B1 light
notes: also called 2-6; 1-21
For the molecule B9, in experiment [3], the “Corrected response (RU), Mean” value stood at 5.2 RU. In addition, the “Corrected response (RU)” value in experiment [1] was found to be 4.3 RU; in experiment [4], 3.8 RU; in experiment [2] it was 7.7 RU.

B10: anti-CD20 human IgG1 L234R/G236R (antibody)
heavy: not shown
light: B1 light
notes: also called 2-41
With B10, the “Corrected response (RU), Mean” value in experiment [3] came out at 5.2 RU. Further, the entries for the “Corrected response (RU)” value in experiment [4] and in experiment [2] were 3.9 RU and 10.7 RU, respectively.

B11: anti-CD20 human IgG1 L234A/L235A/G236R (antibody)
heavy: not shown
light: B1 light
notes: also called 2-2; 1-2
For B11, the “Corrected response (RU), Mean” value in experiment [3] amounted to 4.4 RU. Also, the “Corrected response (RU)” value in experiment [1] was determined as 6.3 RU; in experiment [2] it was 5.2 RU.

B12: anti-CD20 human IgG1 L234E/L235D/G236R (antibody)
heavy: B3 heavy with D238E, S239D
light: B1 light
notes: also called 2-12; 1-33
Regarding B12, the “Corrected response (RU), Mean” value in experiment [3] came out at 12.3 RU. Also, the “Corrected response (RU)” value in experiment [1] was determined as 15.1 RU; in experiment [4], 9.4 RU; in experiment [2], 12.3 RU.

B13: anti-CD20 human IgG1 L234D/L235Q/G236R (antibody)
heavy: B3 heavy with S239Q
light: B1 light
notes: also called 2-9; 1-27
In the case of B13, in experiment [3], the “Corrected response (RU), Mean” value came out at 6.2 RU. Moreover, the “Corrected response (RU)” value is 5.7 RU in experiment [1], 5.9 RU in experiment [4] and 7.1 RU in experiment [2].

B14: anti-CD20 human IgG1 L234T/G236R (antibody)
heavy: not shown
light: B1 light
notes: also called 2-59; 1-159
For B14, the “Corrected response (RU)” value in experiment [1] turned out to be 156 RU.

B15: anti-CD20 human IgG1 L234A/L235T/G236R (antibody)
heavy: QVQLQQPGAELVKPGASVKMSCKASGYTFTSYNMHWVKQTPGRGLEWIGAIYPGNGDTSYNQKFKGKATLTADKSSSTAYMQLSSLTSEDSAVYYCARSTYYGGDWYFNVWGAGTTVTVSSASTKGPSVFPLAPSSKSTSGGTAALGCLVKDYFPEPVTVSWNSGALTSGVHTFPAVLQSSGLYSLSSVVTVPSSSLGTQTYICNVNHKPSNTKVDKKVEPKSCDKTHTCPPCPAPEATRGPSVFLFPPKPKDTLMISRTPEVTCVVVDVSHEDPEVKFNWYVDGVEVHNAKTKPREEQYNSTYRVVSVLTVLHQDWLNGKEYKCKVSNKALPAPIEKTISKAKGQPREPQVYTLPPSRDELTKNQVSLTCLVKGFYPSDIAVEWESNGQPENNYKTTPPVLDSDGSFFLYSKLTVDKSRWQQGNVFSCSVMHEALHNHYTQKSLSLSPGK
light: B1 light
notes: also called 2-5; 1-15
As to B15, the “Corrected response (RU), Mean” value in experiment [3] was 14.3 RU. The “Corrected response (RU)” value in experiment [1] was 14.6 RU; in experiment [4], 11.2 RU; in experiment [2], 17.3 RU.

B16: anti-CD20 human IgG1 L234T/L235V/G236R (antibody)
heavy: B3 heavy with D238T, S239V
light: B1 light
notes: also called 2-64
Regarding B16, the “Corrected response (RU), Mean” value in experiment [3] is 3.9 RU. Besides, the “Corrected response (RU)” value in experiment [4] is 3.6 RU; in experiment [2], 5.4 RU.

B17: anti-CD20 human IgG1 L234R/L235Q/G236R (antibody)
heavy: B3 heavy with D238R, S239Q
light: B1 light
notes: also called 2-42
On to B17, for which the figures for the “Corrected response (RU)” value in experiment [1] and in experiment [2] were -1 RU and 7.3 RU, respectively.

B18: anti-CD20 human IgG1 L235G/G236R (antibody)
heavy: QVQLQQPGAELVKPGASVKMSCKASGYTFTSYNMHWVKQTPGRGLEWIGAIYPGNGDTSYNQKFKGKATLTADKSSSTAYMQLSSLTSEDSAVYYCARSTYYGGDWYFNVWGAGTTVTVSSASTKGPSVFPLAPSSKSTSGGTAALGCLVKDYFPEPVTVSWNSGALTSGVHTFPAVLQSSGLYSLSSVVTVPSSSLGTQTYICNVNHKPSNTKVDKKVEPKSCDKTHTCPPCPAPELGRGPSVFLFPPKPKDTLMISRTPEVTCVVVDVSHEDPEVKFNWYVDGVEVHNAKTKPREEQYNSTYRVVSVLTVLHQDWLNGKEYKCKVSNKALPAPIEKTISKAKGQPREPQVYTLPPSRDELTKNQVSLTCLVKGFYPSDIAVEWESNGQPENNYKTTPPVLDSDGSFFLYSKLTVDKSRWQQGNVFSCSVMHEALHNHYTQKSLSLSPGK
light: B1 light
notes: also called 2-83
Take B18: the “Corrected response (RU)” value in experiment [4] amounted to 125 RU.

B19: anti-CD20 human IgG1 L234K/L235Q/G236R (antibody)
heavy: B3 heavy with D238K, S239Q
light: B1 light
notes: also called 2-22; 1-87
As for B19, the “Corrected response (RU)” value in experiment [4] stood at 6.1 RU; in experiment [2], 5.8 RU.

The values above are taken from patent US20230235013A1 (MABSOLVE, published 2023).
